# Experimental data from patent US12144843B2, “Methods and compositions for modulating myofibroblast activities” (THE REGENTS OF THE UNIVERSITY OF CALIFORNIA, priority 2011, dated 2024).
# “Also recorded” adds a separate entry of the source.
# Experiments:
# [1] = tested on: myofibroblasts; assay: myofibroblast apoptosis; assay type: cell-based; settings: for myofibroblast apoptosis: N=6
# Source text: N=6. *, P<0.05; **, P<0.05.
# (§1) Taken together, FMOD not only promotes TGF-β1-induced myofibroblast differentiation and contractility, but also accelerates myofibroblast clearance—resulting in lack of myofibroblast persistence in remodeling stage of FMOD-treated wounds.
# [2] = tested on: rat dermal fibroblast (RDF); assay: western blotting and qRT-PCR of α-SMA expression in rat dermal fibroblasts; assay type: cell-based
# Source text: Data are normalized to untreated RDFs at time 0 (dash lines). N=3. *, P<0.05.
# (§2) Activity level of myofibroblast is related to the activity of fibromodulin. Fibromodulin can promote myofibroblast differentiation and apoptosis.
# [3] = tested on: myofibroblast; assay: immunofluorescent (IF) staining for α-SMA stress fibers, myofibroblast differentiation in vitro; assay type: cell-based; settings: FMOD combined with TGF-β1
# Source text: Formation of stress fibers stained strongly for α-SMA are indicated by yellow arrows. Scale bar=100 μm.
# as §2
# [4] = tested on: RDF; assay: in vitro collagen gel contraction; assay type: cell-based, rat; settings: FMOD alone; N=6
# Source text: as §2
# [5] = tested on: adult rat wounds; assay: PCR array assay of gene expression in adult rat wounds; assay type: in vivo; settings: for expression of α-SMA in wounds: FMOD-treated adult rat wounds
# Source text: Gene expression is normalized to unwounded skin (dashed lines). N=9 wounds from 9 animals. **, P<0.05.
# Gene expression is normalized to unwounded skin (dashed lines). N=9 wounds from 9 animals. **, P<0.05
# [6] = tested on: adult rat wounds; assay: α-SMA-positive myofibroblasts in wounds; assay type: in vivo; settings: FMOD-treated wounds; day 14 post injury
# Source text: as §1
# [7] = tested on: adult rat skin wounds; assay: scar formation and tensile strength of adult rat skin wounds; assay type: in vivo
# Source text: as §1
Molecule,interleukin (IL)-1β-mediated apoptosis in myofibroblasts ([1]; effect of TGF-β1),"α-smooth muscle actin (α-SMA) expression ([2]; FMOD alone, western blotting and qRT-PCR, N=3)","TGF-β1-induced α-SMA expression ([2]; FMOD in the presence of TGF-β1, N=3)","TGF-β1-induced α-SMA expression ([2]; FMOD in the presence of TGF-β1, N=3, listed as Fibromodulin)",myofibroblast differentiation and contractility in vitro [3],RDF contraction in collagen gel [4],expression of α-SMA in wounds ([5]; early 3-day time-point),expression of α-SMA in wounds ([5]; late 7- and 14-day time-points),IL-1β expression ([5]; day 3 and 7 adult rat wounds),"IL-10 expression ([5]; day 3 and 7 adult rat wounds, PCR array)",myofibroblast apoptosis ([1]; FMOD alone),myofibroblast apoptosis ([1]; in the presence of TGF-β1),α-SMA-positive myofibroblasts [6],collagen architecture ([7]; adult rat primary closure wounds),"scar size ([7]; adult rat skin wounds, doses □ 0.4 mg/ml, day 14 post injury, compared to control)",tensile strength ([7]; adult rat wounds)
"TGF-β1: transforming growth factor (TGF)-β1, myofibroblast differentiation inducing agent",completely blocked,,,,,,,,,,,,,,,
"FMOD: fibromodulin protein; an example is SEQ ID NO:1 (Genebank NM 002023) (protein, listed as Homo sapiens) WTSLLLLAGLFSLSQAQYEDDPHWWFHYLRSQQSTYYDPYDPYPYETYEPYPYGVDEGPAYTYGSPSPPDPRDCPQECDCPPNFPTAMYCDNRNLKYLPFVPSRMKYVYFQNNQITSIQEGVFDNATGLLWIALHGNQITSDKVGRKVFSKLRHLERLYLDHNNLTRMPGPLPRSLRELHLDHNQISRVPNNALEGLENLTALYLQHNEIQEVGSSMRGLRSLILLDLSYNHLRKVPDGLPSALEQLYMEHNNVYTVPDSYFRGAPKLLYVRLSHNSLTNNGLASNTFNSSSLLELDLSYNQLQKIPPVNTNLENLYLQGNRINEFSISSFCTVVDVVNFSKLQVLRLDGNEIKRSAMPADAPLCLRLASLIEI",,no significant effect,significantly enhances,significantly promoted,significantly enhanced,minimal effects,significantly upregulated,reduced,significantly stimulated,significantly stimulated,promoted myofibroblast apoptosis as effectively as IL-1β; also recorded: induces myofibroblast apoptosis as effectively as IL-10,promoted apoptosis even in the presence of TGF-1β,diminished; also recorded: decreased,more organized collagen architecture,significant smaller scar; also recorded: significantly reduces,stronger tensile strength; also recorded: increasing tensile strength in a dose dependent manner
